# Reference: patent US20240400675A1 (published 2024)
# T1: human CLDN9 (human, UniProt O95484 1-217)
# T1 construct: also called CLND9
# T1 sequence: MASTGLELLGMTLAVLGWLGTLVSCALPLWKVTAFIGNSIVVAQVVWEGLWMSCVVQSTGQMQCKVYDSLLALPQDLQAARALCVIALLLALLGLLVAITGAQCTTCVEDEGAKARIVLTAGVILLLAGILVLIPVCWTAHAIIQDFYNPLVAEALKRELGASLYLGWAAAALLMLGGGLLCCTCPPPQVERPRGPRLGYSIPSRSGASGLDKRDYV
# T2: human CLDN6 (human, UniProt P56747 1-220)
# T2 construct: also called Claudin 6
# T2 sequence: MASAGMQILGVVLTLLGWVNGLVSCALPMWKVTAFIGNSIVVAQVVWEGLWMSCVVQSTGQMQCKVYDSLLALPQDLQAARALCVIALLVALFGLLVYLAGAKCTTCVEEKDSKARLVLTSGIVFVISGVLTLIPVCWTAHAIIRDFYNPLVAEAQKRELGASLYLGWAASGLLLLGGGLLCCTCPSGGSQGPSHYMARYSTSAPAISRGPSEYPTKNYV
# T3: human CLDN17 (human, UniProt P56750 1-224)
# T3 construct: whole, on cells
# T3 sequence (looked up): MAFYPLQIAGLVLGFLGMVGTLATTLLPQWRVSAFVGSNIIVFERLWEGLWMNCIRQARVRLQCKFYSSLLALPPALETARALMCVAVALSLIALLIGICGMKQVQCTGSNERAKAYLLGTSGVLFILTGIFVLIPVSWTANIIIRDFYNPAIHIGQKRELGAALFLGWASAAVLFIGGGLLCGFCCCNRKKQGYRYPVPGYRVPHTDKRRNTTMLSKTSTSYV
# T4: human CLDN8 (human, UniProt P56748 1-225)
# T4 construct: whole, on cells
# T4 sequence (looked up): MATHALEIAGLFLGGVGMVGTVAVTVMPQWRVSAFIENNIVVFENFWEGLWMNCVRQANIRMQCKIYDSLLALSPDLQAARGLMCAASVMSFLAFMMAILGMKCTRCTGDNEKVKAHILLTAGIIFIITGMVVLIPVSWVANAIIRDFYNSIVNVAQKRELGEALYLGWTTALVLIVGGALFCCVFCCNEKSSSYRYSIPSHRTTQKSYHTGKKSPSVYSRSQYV
# Tests used:
# human CLDN9 = target: T1, human CLDN9; assay: flow cytometry on HEK293E cells expressing CLDN9
# Procedure: (§1) The following experiments used to screen CLDN6 binding domains were generally performed as follows. HEK293T or HEK293E cells were respectively stably or transiently transfected to express CLDN6, CLND9, or other targets of interest. 48 hours post transfection, cells were harvested and incubated with dilutions of the indicated test articles for 1 hour at 4° C. […] Binding was then assessed via flow cytometry.
# human CLDN6 [1] = target: T2, human CLDN6; assay: flow cytometry on HEK293E cells expressing CLDN6 or CLDN9; EC50 on CLDN9 cells divided by EC50 on CLDN6 cells
# Procedure: as §1
# human CLDN6 [2] = target: T2, human CLDN6; assay: flow cytometry on PA-1 cells engineered to a range of CLDN6 densities
# From the text: PA-1 cells were engineered to stably express a range of CLDN6 antigen densities. […] Cells were washed, stained with a secondary antibody, and washed again prior to being analyzed using flow cytometry.
# Cell lines were then washed, stained with secondary antibody, and washed again before measuring binding by flow cytometry.
# human CLDN17 = target: T3, human CLDN17; assay: flow cytometry on transiently transfected 293 cells, 100 ug/ml
# Procedure: (§2) 293 cells were transiently transfected to express CLDN3, CLDN4, CLDN8, or CLDN17. Cells were plated and each test article was added to each cell line at a 100 μg/ml dose. After 1 hour incubation at 4° C., cells were washed and a secondary AF647 antibody was added. Cells were incubated at 4° C. for another hour, followed by additional washing and then analysis by flow cytometry.
# as §2, with “with” for “to express”, “cytometry. […] This highlights the potential of CLDN6 binding domains having specificity for binding not only CLDN6 but also other claudin family members.” for “cytometry.”
# human CLDN8 = target: T4, human CLDN8; assay: as above
# Procedure: as §2
# as §2, with “with” for “to express”, “cytometry. […] This highlights the potential of CLDN6 binding domains having specificity for binding not only CLDN6 but also other claudin family members.” for “cytometry.”
binder,measurement,setting,value
"XENP36956 (antibody, V domains shown, Bivalent mAb, C6-30 combination variant; also called XENP36956 having H1.22_L1.87; XENP36956 having H1.22_L1.187; copies: 2 + 2) VH: QVQLVQSGAEVKKPGASVKVSCKTSGYTFTEYTMHWVRQAPGQSLEWMGGIDPNNGNTHYNQKFQGRVTITVDKSASTAYMELSSLRSEDTAVYYCARILYFGRLYFDFWGAGTLVTVSS VL: DIQMTQSPSSLSASVGDRVTITCQASEDIYNRLAWYQQKPGKVPKLLISGATSLETGVPSRFSGSGSGKDYTFTISSLQPEDIATYYCQQYWSAPLTFGGGTKVEIKR",EC50,human CLDN9,29.6 µg/mL
same,CLDN9/CLDN6 EC50 ratio,human CLDN6 [1],44.9
"XENP37541 (Xtend analog to XENP37227) (bispecific antibody, 2+1 Fab2-scFv-Fc, C6-30_H1.9_L1.187, CD3 High-Int #1, with Xtend Fc (M428L/N434S); copies: 1 + 1 + 2) heavy 1: QVQLVQSGAEVKKPGASVKVSCKTSGYTFTEYTMHWVRQAPGQSLEWMGGIDPNNANTHYNQKFQGRVTITVDKSASTAYMELSSLRSEDTAVYYCARIYYFGRLYFDFWGAGTLVTVSSASTKGPSVFPLAPSSKSTSGGTAALGCLVKDYFPEPVTVSWNSGALTSGVHTFPAVLQSSGLYSLSSVVTVPSSSLGTQTYICNVNHKPSDTKVDKKVEPKSCDKTHTCPPCPAPPVAGPSVFLFPPKPKDTLMISRTPEVTCVVVDVKHEDPEVKFNWYVDGVEVHNAKTKPREEEYNSTYRVVSVLTVLHQDWLNGKEYKCKVSNKALPAPIEKTISKAKGQPREPQVYTLPPSREEMTKNQVSLTCDVSGFYPSDIAVEWESDGQPENNYKTTPPVLDSDGSFFLYSKLTVDKSRWEQGDVFSCSVLHEALHSHYTQKSLSLSPGK heavy 2: QVQLVQSGAEVKKPGASVKVSCKTSGYTFTEYTMHWVRQAPGQSLEWMGGIDPNNANTHYNQKFQGRVTITVDKSASTAYMELSSLRSEDTAVYYCARIYYFGRLYFDFWGAGTLVTVSSASTKGPSVFPLAPSSKSTSGGTAALGCLVKDYFPEPVTVSWNSGALTSGVHTFPAVLQSSGLYSLSSVVTVPSSSLGTQTYICNVNHKPSNTKVDKKVEPKSCGGGGSGGGGSQAVVTQEPSLTVSPGGTVTLTCGSSTGAVTTSNYANWVQQKPGKSPRGLIGGTNKRAPGVPARFSGSLLGGKAALTISGAQPEDEADYYCALWYSNHWVFGGGTKLTVLGKPGSGKPGSGKPGSGKPGSEVQLVESGGGLVQPGGSLRLSCAASGFTFSTYAMNWVRQAPGKGLEWVGRIRSKANNYATYYADSVKGRFTISRDDSKNTLYLQMNSLRAEDTAVYYCVRHGNFGDSYVSWFAYWGQGTLVTVSSGGGGSGGGGSKTHTCPPCPAPPVAGPSVFLFPPKPKDTLMISRTPEVTCVVVDVKHEDPEVKFNWYVDGVEVHNAKTKPREEQYNSTYRVVSVLTVLHQDWLNGKEYKCKVSNKALPAPIEKTISKAKGQPREPQVYTLPPSREQMTKNQVKLTCLVKGFYPSDIAVEWESNGQPENNYKTTPPVLDSDGSFFLYSKLTVDKSRWQQGNVFSCSVLHEALHSHYTQKSLSLSPGK light: not shown",binding result,human CLDN6 [2],binds
"XENP37217, CLDN6 x CD3 bispecific with comparator CLDN6 binding domain Comp_CHO02 in the 2+1 Fab2-scFv-Fc format (bispecific antibody, also called comparator molecule XENP37217) heavy 1: EVQVEQSGLELVKPGASVKISCKTSGYTFTEYTMHWVKQSHGKSLEWIGGINPNNGNTRYNQKFKDKATLTVDKSSRTAYMELHTLTSEDSAVYYCARCGDYDLFFFFAYWGQGTLVTVSAASTKGPSVFPLAPSSKSTSGGTAALGCLVKDYFPEPVTVSWNSGALTSGVHTFPAVLQSSGLYSLSSVVTVPSSSLGTQTYICNVNHKPSNTKVDKKVEPKSCGGGGSGGGGSQAVVTQEPSLTVSPGGTVTLTCGSSTGAVTTSNYANWVQQKPGKSPRGLIGGTNKRAPGVPARFSGSLLGGKAALTISGAQPEDEADYYCALWYSNHWVFGGGTKLTVLGKPGSGKPGSGKPGSGKPGSEVQLVESGGGLVQPGGSLRLSCAASGFTFSTYAMNWVRQAPGKGLEWVGRIRSKANNYATYYADSVKGRFTISRDDSKNTLYLQMNSLRAEDTAVYYCVRHGNFGDSYVSWFAYWGQGTLVTVSSGGGGSGGGGSKTHTCPPCPAPPVAGPSVFLFPPKPKDTLMISRTPEVTCVVVDVKHEDPEVKFNWYVDGVEVHNAKTKPREEQYNSTYRVVSVLTVLHQDWLNGKEYKCKVSNKALPAPIEKTISKAKGQPREPQVYTLPPSREQMTKNQVKLTCLVKGFYPSDIAVEWESNGQPENNYKTTPPVLDSDGSFFLYSKLTVDKSRWQQGNVFSCSVMHEALHNHYTQKSLSLSPGK heavy 2: EVQVEQSGLELVKPGASVKISCKTSGYTFTEYTMHWVKQSHGKSLEWIGGINPNNGNTRYNQKFKDKATLTVDKSSRTAYMELHTLTSEDSAVYYCARCGDYDLFFFFAYWGQGTLVTVSAASTKGPSVFPLAPSSKSTSGGTAALGCLVKDYFPEPVTVSWNSGALTSGVHTFPAVLQSSGLYSLSSVVTVPSSSLGTQTYICNVNHKPSDTKVDKKVEPKSCDKTHTCPPCPAPPVAGPSVFLFPPKPKDTLMISRTPEVTCVVVDVKHEDPEVKFNWYVDGVEVHNAKTKPREEEYNSTYRVVSVLTVLHQDWLNGKEYKCKVSNKALPAPIEKTISKAKGQPREPQVYTLPPSREEMTKNQVSLTCDVSGFYPSDIAVEWESDGQPENNYKTTPPVLDSDGSFFLYSKLTVDKSRWEQGDVFSCSVMHEALHNHYTQKSLSLSPGK light: DIVMTQFQKFMSTSVGDRVSVTCKASQNVGTNVAWYQQKPGQSPEALISSASSRFSGVPDRFTGSGSGTDFTLTITNVQSEDLADYFCQQYNSFPFTFGSGTELEIKRTVAAPSVFIFPPSDEQLKSGTASVVCLLNNFYPREAKVQWKVDNALQSGNSQESVTEQDSKDSTYSLSSTLTLSKADYEKHKVYACEVTHQGLSSPVTKSFNRGEC",binding result,human CLDN17,binds
same,binding result,human CLDN8,binds
